This data set can be described thus: melting temperature; melt of duplexes. The settings on record: sodium 0.0675 M; strand 1 µM.
For “CGACGTGCGTGATGTGCTG+CAGCACATCCTGCACGTCG ((((((((..(((((((((+)))))))))..))))))))”, the Tm amounted to 55.6 °C.

Take “CGACGTGCGTTATGTGCTG+CAGCACATGCCGCACGTCG (((((((((..((((((((+))))))))..)))))))))”: the Tm was 53.7 °C.

Regarding “CGACGTGCATAATGTGCTG+CAGCACATGAAGCACGTCG ((((((((.(.((((((((+)))))))).).))))))))”, the Tm stood at 52.8 °C.

Regarding “CGACGTGCTATATGTGCTG+CAGCACATTTTGCACGTCG ((((((((.(.((((((((+)))))))).).))))))))”, the Tm worked out at 50.9 °C.

With “CGACGTGCATCATGTGCTG+CAGCACATTTGGCACGTCG ((((((((...((((((((+))))))))...))))))))”, the Tm is 48.2 °C.

For the substance “CGACGTGCAGAATGTGCTG+CAGCACATGTAGCACGTCG ((((((((...((((((((+))))))))...))))))))”, the Tm was determined as 53.4 °C.

For the substance “CGACGTGCTAGATGTGCTG+CAGCACATAGGGCACGTCG ((((((((...((((((((+))))))))...))))))))”, the Tm came to 51.5 °C.

For “CGACGTGCCATATGTGCTG+CAGCACATGGAGCACGTCG ((((((((...((((((((+))))))))...))))))))”, the Tm was 51.5 °C.

Consider “CGACGTGCCGAATGTGCTG+CAGCACATGCTGCACGTCG ((((((((.(.((((((((+)))))))).).))))))))”, for which the Tm was found to be 50.8 °C.

Consider “CGACGTGCGCTATGTGCTG+CAGCACATGGTGCACGTCG ((((((((.(.((((((((+)))))))).).))))))))”, for which the Tm came out at 54.6 °C.

On to “CGACGTGCGCCATGTGCTG+CAGCACATACAGCACGTCG ((((((((...((((((((+))))))))...))))))))”, for which the Tm worked out at 51.3 °C.

For the substance “CGACGTGCCCAATGTGCTG+CAGCACATTCGGCACGTCG (((((((((.(((((((((+))))))))).)))))))))”, the Tm is 55.8 °C.

In the case of “CGACGTGCTGTATGTGCTG+CAGCACATGGAGCACGTCG (((((((((..((((((((+))))))))..)))))))))”, the Tm was found to be 55 °C.

Turning to “CGACGTGCCAAATGTGCTG+CAGCACATCGGGCACGTCG (((((((((..((((((((+))))))))..)))))))))”, the Tm stood at 54.3 °C.

For the substance “CGACGTGCGGAATGTGCTG+CAGCACATTAAGCACGTCG ((((((((..(((((((((+)))))))))..))))))))”, the Tm was 55.8 °C.

Regarding “CGACGTGCTCGATGTGCTG+CAGCACATAGTGCACGTCG ((((((((.(.((((((((+)))))))).).))))))))”, the Tm was 49.8 °C.

Consider “CGACGTGCTACATGTGCTG+CAGCACATACGGCACGTCG ((((((((...((((((((+))))))))...))))))))”, for which the Tm is 48.8 °C.

Turning to “CGACGTGCGGGATGTGCTG+CAGCACATCTCGCACGTCG (((((((((.(((((((((+))))))))).)))))))))”, the Tm worked out at 62.3 °C.

In the case of “CGACGTGCCCCATGTGCTG+CAGCACATGTAGCACGTCG ((((((((..(((((((((+)))))))))..))))))))”, the Tm turned out to be 51.9 °C.

On to “CGACGTGCGGAATGTGCTG+CAGCACATGTCGCACGTCG (((((((((..((((((((+))))))))..)))))))))”, for which the Tm turned out to be 57 °C.

Regarding “CGACGTGCCAGATGTGCTG+CAGCACATTCAGCACGTCG ((((((((...((((((((+))))))))...))))))))”, the Tm was 50.7 °C.

For “CGACGTGCTCAATGTGCTG+CAGCACATACTGCACGTCG ((((((((...((((((((+))))))))...))))))))”, the Tm worked out at 48.7 °C.

Take “CGACGTGCATCATGTGCTG+CAGCACATTAAGCACGTCG ((((((((.(.((((((((+)))))))).).))))))))”: the Tm amounted to 48.6 °C.

Regarding “CGACGTGCGCTATGTGCTG+CAGCACATTGCGCACGTCG ((((((((((.((((((((+)))))))).))))))))))”, the Tm was 61 °C.

On to “CGACGTGCAGCATGTGCTG+CAGCACATAGTGCACGTCG (((((((((..((((((((+))))))))..)))))))))”, for which the Tm was found to be 44.4 °C.

With “CGACGTGCGTGATGTGCTG+CAGCACATGATGCACGTCG ((((((((.(.((((((((+)))))))).).))))))))”, the Tm turned out to be 54 °C.

Consider “CGACGTGCGCAATGTGCTG+CAGCACATATTGCACGTCG ((((((((...((((((((+))))))))...))))))))”, for which the Tm is 49.2 °C.

Turning to “CGACGTGCGGTATGTGCTG+CAGCACATTCAGCACGTCG ((((((((.(.((((((((+)))))))).).))))))))”, the Tm stood at 54.2 °C.

On to “CGACGTGCATCATGTGCTG+CAGCACATGCGGCACGTCG ((((((((..(((((((((+)))))))))..))))))))”, for which the Tm turned out to be 52.7 °C.

On to “CGACGTGCCGAATGTGCTG+CAGCACATAGGGCACGTCG (((((((((..((((((((+))))))))..)))))))))”, for which the Tm was determined as 54.4 °C.

“CGACGTGCTACATGTGCTG+CAGCACATAGGGCACGTCG ((((((((...((((((((+))))))))...))))))))”: the Tm turned out to be 50.8 °C.

For the substance “CGACGTGCTAAATGTGCTG+CAGCACATCGCGCACGTCG ((((((((...((((((((+))))))))...))))))))”, the Tm came out at 47.5 °C.

Consider “CGACGTGCGGTATGTGCTG+CAGCACATGGCGCACGTCG (((((((((..((((((((+))))))))..)))))))))”, for which the Tm is 59.9 °C.

Consider “CGACGTGCAGCATGTGCTG+CAGCACATTACGCACGTCG ((((((((...((((((((+))))))))...))))))))”, for which the Tm came to 45.1 °C.

For “CGACGTGCCGGATGTGCTG+CAGCACATCCTGCACGTCG ((((((((.((((((((((+)))))))))).))))))))”, the Tm stood at 58.9 °C.

For “CGACGTGCGGAATGTGCTG+CAGCACATTCAGCACGTCG ((((((((.((((((((((+)))))))))).))))))))”, the Tm is 60.2 °C.

For “CGACGTGCTCGATGTGCTG+CAGCACATTATGCACGTCG ((((((((...((((((((+))))))))...))))))))”, the Tm amounted to 49.6 °C.

For “CGACGTGCTCGATGTGCTG+CAGCACATGTGGCACGTCG ((((((((...((((((((+))))))))...))))))))”, the Tm was 50.7 °C.

In the case of “CGACGTGCACCATGTGCTG+CAGCACATTGCGCACGTCG ((((((((.(.((((((((+)))))))).).))))))))”, the Tm worked out at 46.9 °C.

For the substance “CGACGTGCGGCATGTGCTG+CAGCACATCATGCACGTCG ((((((((...((((((((+))))))))...))))))))”, the Tm was 51.2 °C.

Consider “CGACGTGCCACATGTGCTG+CAGCACATAGAGCACGTCG ((((((((...((((((((+))))))))...))))))))”, for which the Tm came to 49.4 °C.

Turning to “CGACGTGCAGAATGTGCTG+CAGCACATCGTGCACGTCG (((((((((..((((((((+))))))))..)))))))))”, the Tm was determined as 49 °C.

As to “CGACGTGCTTCATGTGCTG+CAGCACATACCGCACGTCG ((((((((...((((((((+))))))))...))))))))”, the Tm is 47.3 °C.

Turning to “CGACGTGCATAATGTGCTG+CAGCACATGTGGCACGTCG ((((((((...((((((((+))))))))...))))))))”, the Tm was determined as 51 °C.

Regarding “CGACGTGCCGGATGTGCTG+CAGCACATAACGCACGTCG ((((((((...((((((((+))))))))...))))))))”, the Tm was found to be 50 °C.

In the case of “CGACGTGCAATATGTGCTG+CAGCACATGCAGCACGTCG ((((((((...((((((((+))))))))...))))))))”, the Tm was 52.1 °C.

On to “CGACGTGCCTCATGTGCTG+CAGCACATGAAGCACGTCG ((((((((.((((((((((+)))))))))).))))))))”, for which the Tm is 56.3 °C.

For the origin of these results see the array DNA melting data of Ke et al..
